Substitutions are numbered along the chain they refer to. Blank lines part the entries; values can stand above or below the binder they belong to.
What was measured:
[1] = target: T1, human VLA4-Fc (alpha4-Fc/beta1-Fc heterodimer) (human); test: SPR (BIACORE), crude CHO-S supernatant on VLA4-Fc
T1 construct: Soluble heterodimer from CHO cells, Protein A purified; also called VLA-Fc

[2] = target: T1, human VLA4-Fc (alpha4-Fc/beta1-Fc …); test: SPR (BIACORE), VLA4-Fc captured by anti-human IgG, 1 mM MnCl2, 1:1 Langmuir
Experimental: (§1) The kinetic 2D-VCAM-1 assay measures binding kinetics of a dimeric ligand (e.g., VLA-Fc fusion protein or LPAM-1-Fc fusion protein) coated to sensor chips and monomeric analyte (e.g., 2D-VCAM-1 variant polypeptides) in the mobile phase. Goat anti-human IgG antibody (Jackson ImmunoResearch, Catalog No. 105-005-098) was immobilized on CM-5 sensor chips (GE Healthcare, Catalog No. BR-1000-14) according to the manufacturer's protocol. Antibody was diluted to 30 μg/ml in immobilization buffer (10 mM sodium acetate, pH 5.0 (GE Healthcare, Catalog No. BR-1003-51)). […] Un-reacted sites were quenched with 35 μl of 1 M ethanolamine-HCl pH 8.5 (GE Healthcare, Catalog No. BR-1000-50). This procedure typically yielded 15,000 response units (RU) of coupled antibody. VLA4-Fc or LPAM-1-Fc, prepared as described in Examples 3 and 4, respectively, were bound to antibody-coated sensor chips by injection of 20 μl of ligand solution (20 μg/ml protein in HBS-P-Mn buffer at a flow rate of 10 μl/min). Ligand capture levels were typically 200-300 RU. 2D-VCAM-1 variant polypeptides were diluted in HBS-P-Mn and flowed over ligand-coated sensor chips for 2 min at 30 μl/min, followed by 5 min incubation with in HBS-P-Mn containing no protein at the same flow rate. For 2D-VCAM-1 variant polypeptides having very slow dissociation rates from VLA4-Fc or LPAM-1-Fc, kinetic assays were also conducted using longer dissociation times (e.g., 20 min). Rmax signal levels for 2D-VCAM-1 variant polypeptides ranged from approximately 5-25 RU. Regeneration between cycles was performed by 200 sec incubation with 10 mM glycine buffer (pH 1.7) at 50 μl/min. New chips were subjected to 4-5 cycles of capture/binding/regeneration prior to use in actual experiments. Data from a reference cell containing goat anti-human IgG capture antibody alone was subtracted from data obtained from flow cells containing captured VLA4-Fc or LPAM-1-Fc. Typically, 8 dilutions of 2D-VCAM-1 variant polypeptides ranging from 150 nM to 0.069 nM were analyzed against a blank reference (HBS-P-Mn buffer alone).

[3] = target: T2, human LPAM-1-Fc (alpha4-Fc/beta7-Fc heterodimer) (human); test: SPR (BIACORE), LPAM-1-Fc captured by anti-human IgG, 1 mM MnCl2, 1:1 Langmuir
T2 construct: Soluble heterodimer from CHO cells, Protein A purified
T2 sequence (chain, as listed by the source limits assumed, chain 1 of 2): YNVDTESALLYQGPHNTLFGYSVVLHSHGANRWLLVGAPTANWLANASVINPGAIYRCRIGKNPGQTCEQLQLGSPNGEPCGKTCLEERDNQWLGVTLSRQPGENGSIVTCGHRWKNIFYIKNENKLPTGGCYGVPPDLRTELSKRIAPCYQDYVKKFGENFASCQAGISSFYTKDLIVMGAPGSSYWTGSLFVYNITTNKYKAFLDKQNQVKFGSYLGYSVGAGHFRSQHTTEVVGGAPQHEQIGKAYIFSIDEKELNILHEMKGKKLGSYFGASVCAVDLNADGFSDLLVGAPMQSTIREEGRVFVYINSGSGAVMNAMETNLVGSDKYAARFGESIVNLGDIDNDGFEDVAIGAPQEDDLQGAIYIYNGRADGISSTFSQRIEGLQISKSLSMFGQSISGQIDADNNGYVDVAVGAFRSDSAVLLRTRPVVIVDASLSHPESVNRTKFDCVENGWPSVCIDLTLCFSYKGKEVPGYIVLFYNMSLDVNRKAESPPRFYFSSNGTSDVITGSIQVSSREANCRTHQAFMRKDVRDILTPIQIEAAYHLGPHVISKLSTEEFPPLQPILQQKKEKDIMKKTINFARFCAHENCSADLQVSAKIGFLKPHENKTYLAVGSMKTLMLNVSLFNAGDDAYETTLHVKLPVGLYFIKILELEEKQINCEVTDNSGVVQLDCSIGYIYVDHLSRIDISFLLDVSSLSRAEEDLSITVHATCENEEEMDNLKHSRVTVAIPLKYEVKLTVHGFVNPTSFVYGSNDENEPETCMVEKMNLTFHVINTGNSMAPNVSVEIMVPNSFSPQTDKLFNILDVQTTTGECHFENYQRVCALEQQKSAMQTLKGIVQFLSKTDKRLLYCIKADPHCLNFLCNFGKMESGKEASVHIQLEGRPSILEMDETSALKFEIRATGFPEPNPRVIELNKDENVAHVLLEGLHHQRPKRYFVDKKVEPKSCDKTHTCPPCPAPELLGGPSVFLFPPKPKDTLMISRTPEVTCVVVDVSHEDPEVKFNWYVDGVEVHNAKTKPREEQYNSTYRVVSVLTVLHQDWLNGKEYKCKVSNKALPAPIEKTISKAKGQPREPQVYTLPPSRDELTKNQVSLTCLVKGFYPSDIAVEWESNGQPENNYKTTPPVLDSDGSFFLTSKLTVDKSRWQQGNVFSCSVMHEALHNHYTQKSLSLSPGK
T2 sequence (chain, as listed by the source limits assumed, chain 2 of 2): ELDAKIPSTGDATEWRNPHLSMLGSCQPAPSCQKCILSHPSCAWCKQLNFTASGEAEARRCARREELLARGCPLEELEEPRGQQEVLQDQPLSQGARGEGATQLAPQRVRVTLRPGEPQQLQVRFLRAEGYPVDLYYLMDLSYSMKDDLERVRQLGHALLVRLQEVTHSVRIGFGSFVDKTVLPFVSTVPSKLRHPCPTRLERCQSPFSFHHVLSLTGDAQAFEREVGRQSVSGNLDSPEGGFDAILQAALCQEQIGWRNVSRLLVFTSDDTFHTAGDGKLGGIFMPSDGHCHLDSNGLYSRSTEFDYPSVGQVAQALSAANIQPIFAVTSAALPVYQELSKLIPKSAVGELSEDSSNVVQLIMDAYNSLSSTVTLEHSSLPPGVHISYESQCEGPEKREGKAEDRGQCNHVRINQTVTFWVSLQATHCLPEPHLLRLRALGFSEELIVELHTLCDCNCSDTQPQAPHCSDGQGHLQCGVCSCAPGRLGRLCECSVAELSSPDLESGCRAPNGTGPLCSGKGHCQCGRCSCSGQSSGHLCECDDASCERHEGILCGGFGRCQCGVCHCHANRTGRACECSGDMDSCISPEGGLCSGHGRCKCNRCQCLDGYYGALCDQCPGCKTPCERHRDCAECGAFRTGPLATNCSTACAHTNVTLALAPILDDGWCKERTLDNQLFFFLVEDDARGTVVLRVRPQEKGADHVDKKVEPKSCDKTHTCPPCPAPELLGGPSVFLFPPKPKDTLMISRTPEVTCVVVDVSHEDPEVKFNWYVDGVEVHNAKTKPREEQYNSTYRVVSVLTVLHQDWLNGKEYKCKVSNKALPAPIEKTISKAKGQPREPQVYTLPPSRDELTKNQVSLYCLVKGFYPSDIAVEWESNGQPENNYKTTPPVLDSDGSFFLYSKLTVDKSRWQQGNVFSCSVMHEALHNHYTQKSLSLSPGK
Experimental: as §1

[4] = target: T1, human VLA4-Fc (alpha4-Fc/beta1-Fc …); test: ELISA, VLA4-Fc coated, 1 mM MnCl2; from EC50 values
Experimental: The relative binding affinities of various 2D-VCAM-1 variants to immobilized VLA4-Fc (α4-β1-Fc) heterodimer, relative to a control protein (e.g., Q38L-2D-VCAM-1 or to human 2D-VCAM-1), were deter using a solid-phase ELISA assay. MAXISORP™ ELISA plates (NUNC) were coated overnight at 4° C. with 50 ul VLA4-Fc heterodimer, 2 ug/ml in TBS-M (TBS (25 mM Tris-HCl pH 7.5, 150 mM NaCl) with 1 mM MnCl2), washed with TBS-T (TBS with 0.05% TWEEN-20), blocked with 200 ul 3% milk in TBS-M for 1 h at room temperature, and washed again with TBS-T. A four-fold dilution series of the purified 2D-VCAM variants to be assayed was made in COSTAR U-bottom plates in TBS-TMC (TBS with 0.05% Tween-20, 1 mM MnCl2, and 1% casein; Sigma) with a starting concentration of 8.2 uM (200 ug/ml). The dilution series was transferred into the ELISA plate which was incubated at room temperature for 2 h and subsequently washed with TBS-T. Bound 2D-VCAM protein was detected by incubation with 0.5 ug/ml of biotinylated anti-human VCAM antibody (R&D Systems, Catalog No. BAF809) in TBS-TMC for 1 h at room temperature followed by a TBS-MT (TBS plus 1 mM MnCl2 and 0.02% TWEEN-20) wash and subsequent incubation with 1:2000 dilution of streptavidin-HRP (BD Biosciences, Catalog No. 554066) in TBS-TMC for 30 min at room temperature. […] Typical development times ranged from […] and development was stopped by addition of 50 ul 2M H₂SO₄ (EM, Catalog No. SX1244-75). […] Fold-improvement in binding was calculated relative to a control protein (e.g., Q38L-2D-VCAM-1 or human 2D-VCAM-1) assayed on the same plate.

[5] = target: T2, human LPAM-1-Fc (alpha4-Fc/beta7-Fc …); test: SPR (BIACORE) as in Example 12, polypeptide purified from E. coli as analyte on captured LPAM-1-Fc; KD drawn as bars (Example 20)

T1 sequence (chain, as listed by the source limits assumed, form in doubt, chain 1 of 2): as the sequence (chain, as listed by the source limits assumed, chain 1 of 2) above
T1 sequence (chain, as listed by the source limits assumed, form in doubt, chain 2 of 2): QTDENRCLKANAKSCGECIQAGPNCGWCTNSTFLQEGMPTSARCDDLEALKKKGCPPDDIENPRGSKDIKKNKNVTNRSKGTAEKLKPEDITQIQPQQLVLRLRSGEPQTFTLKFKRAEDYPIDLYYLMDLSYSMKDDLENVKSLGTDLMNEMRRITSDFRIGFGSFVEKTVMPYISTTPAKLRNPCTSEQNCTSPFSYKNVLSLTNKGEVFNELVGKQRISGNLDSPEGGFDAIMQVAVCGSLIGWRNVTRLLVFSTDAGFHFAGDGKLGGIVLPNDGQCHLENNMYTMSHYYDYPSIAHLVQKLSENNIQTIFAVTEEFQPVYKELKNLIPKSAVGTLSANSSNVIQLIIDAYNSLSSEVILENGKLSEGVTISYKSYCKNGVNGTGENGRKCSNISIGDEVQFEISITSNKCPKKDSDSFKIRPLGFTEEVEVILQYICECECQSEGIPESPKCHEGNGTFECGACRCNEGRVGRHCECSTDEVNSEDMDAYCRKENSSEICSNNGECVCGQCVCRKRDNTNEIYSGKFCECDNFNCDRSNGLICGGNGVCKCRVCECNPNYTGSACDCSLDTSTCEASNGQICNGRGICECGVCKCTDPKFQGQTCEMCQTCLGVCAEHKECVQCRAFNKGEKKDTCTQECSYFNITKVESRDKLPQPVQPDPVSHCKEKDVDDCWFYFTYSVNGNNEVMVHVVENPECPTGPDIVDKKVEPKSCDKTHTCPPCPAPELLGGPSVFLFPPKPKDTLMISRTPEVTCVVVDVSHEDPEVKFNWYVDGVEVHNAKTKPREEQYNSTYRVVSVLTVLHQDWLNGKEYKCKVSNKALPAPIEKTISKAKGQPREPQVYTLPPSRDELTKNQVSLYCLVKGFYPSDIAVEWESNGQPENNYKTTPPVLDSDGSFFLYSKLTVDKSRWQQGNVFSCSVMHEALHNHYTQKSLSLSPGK

B1: 146R0 (Clone 146 with three spacer-FLAG tags, CHO-S supernatant) (ligand)
chain: FKIETTPESRYLAQIGDSVSLTCSTTGCESPLFFWRPLLDSPLNGKVTNEGTTSTLTMNPVSFGNEHSYLCTARCESRSLEKGIQVEIYSFPKDPEIHLSGPLEAGKPITVKCSVADVYPFDRLEIDLLKGDHLMKSQEFLEDADRKSLETKSLEVTFTPVIEDIGKVLVCRAKLHIDEMDSVPTVRQAVKELQVYISPGGGSDYKDDDDKGGGSDYKDDDDKGGGSDYKDDDDK
notes: assayed as concentrated, filtered crude supernatant
fold weaker binding relative to 146R0 (KD(variant)/KD(146R0)) [1]: 1 fold

B2: human 2D-VCAM-1 (ligand)
chain: FKIETTPESRYLAQIGDSVSLTCSTTGCESPFFSWRTQIDSPLNGKVTNEGTTSTLTMNPVSFGNEHSYLCTATCESRKLEKGIQVEIYSFPKDPEIHLSGPLEAGKPITVKCSVADVYPFDRLEIDLLKGDHLMKSQEFLEDADRKSLETKSLEVTFTPVIEDIGKVLVCRAKLHIDEMDSVPTVRQAVKELQVYISP
notes: also called wild type 2D-VCAM-1; wt-2D-VCAM-1; not shown: His tag
Kd [2]: 15.2 nM | binding affinity for VLA4-Fc relative to human 2D-VCAM-1 [2]: 1 fold | Kd [3]: 248 nM | binding affinity for LPAM-1-Fc relative to human 2D-VCAM-1 [3]: 1 fold

B3: 2D-VCAM-1 variant Clone 151 (ligand)
chain: B2 chain with F32S, S34Y, T37P, I39L, S41A, T74A, K79R
notes: not shown: His tag
fold-improvement in binding relative to Q38L-2D-VCAM-1 [4]: 2 fold | fold-improvement in binding relative to human 2D-VCAM-1 [4]: 16 fold

B4: 146R7 (ligand)
chain: FKIETTPESRYLAQIGDSVSLTCSTTGCESPLFFWRPLLDSPLNGKVTNEGTTSTLTMNPVSFGNEHSYLCTARCESRKLEKGIQVEIYSFPKDPEIHLSGPLEAGKPITVKCSVADVYPFDRLEIDLLKGDHLMKSQEFLEDADRKSLETKSLEVTFTPVIEDIGKVLVCRAKLHIDEMDSVPTVRQAVKELQVYISPGGGSDYKDDDDKGGGSDYKDDDDKGGGSDYKDDDDKGS
notes: Crude CHO-S supernatant, 3x spacer-FLAG tagged
fold weaker binding relative to 146R0 (KD(variant)/KD(146R0)) [1]: 1 fold

B5: 146R13 (ligand)
chain: B4 chain with L32F
notes: as for B4
fold weaker binding relative to 146R0 (KD(variant)/KD(146R0)) [1]: 2.3 fold

B9: 146R11 (ligand)
chain: B4 chain with L38Q, R74T
notes: as for B4
fold weaker binding relative to 146R0 (KD(variant)/KD(146R0)) [1]: 25.9 fold

B10: 146R12 (ligand)
chain: B4 chain with L32F, F34S, R74T
notes: as for B4
fold weaker binding relative to 146R0 (KD(variant)/KD(146R0)) [1]: 21.7 fold

B11: 146R4 (ligand)
chain: B4 chain with L38Q, K79S
notes: as for B4
fold weaker binding relative to 146R0 (KD(variant)/KD(146R0)) [1]: 2.6 fold

B12: 146R2 (ligand)
chain: B4 chain with F34S, K79S
notes: as for B4
fold weaker binding relative to 146R0 (KD(variant)/KD(146R0)) [1]: 2.7 fold

B13: 146R10 (ligand)
chain: B4 chain with L32F, R74T
notes: as for B4
fold weaker binding relative to 146R0 (KD(variant)/KD(146R0)) [1]: 2.7 fold

B15: 146R3 (ligand)
chain: B4 chain with P37T, K79S
notes: as for B4
fold weaker binding relative to 146R0 (KD(variant)/KD(146R0)) [1]: 1.3 fold

B16: 146R5 (ligand)
chain: B4 chain with L39I, K79S
notes: as for B4
fold weaker binding relative to 146R0 (KD(variant)/KD(146R0)) [1]: 1.2 fold

B19: 146R6 (ligand)
chain: B4 chain with R74T, K79S
notes: as for B4
fold weaker binding relative to 146R0 (KD(variant)/KD(146R0)) [1]: 1.8 fold

B20: 146R1 (ligand)
chain: B4 chain with L32F, K79S
notes: as for B4
fold weaker binding relative to 146R0 (KD(variant)/KD(146R0)) [1]: 1.1 fold

B21: 146R8 (ligand)
chain: B4 chain with R74T
notes: as for B4
fold weaker binding relative to 146R0 (KD(variant)/KD(146R0)) [1]: 1.7 fold

B24: 146R9 (ligand)
chain: B4 chain with L32F, L38Q, K79S
notes: as for B4
fold weaker binding relative to 146R0 (KD(variant)/KD(146R0)) [1]: 2 fold

B27: R1R7 (ligand)
2D-VCAM-1 variant polypeptide: MFKIETTPESRYLAQIGDSVSLTCSTTGCESPFFFWRPLLDSPLNGKVTNEGTTSTLTMNPVSFGNEHSYLCTARCESRKLEKGIQVEIYSFPKDPEIHLSGPLEAGKPITVKCSVADVYPFDRLEIDLLKGDHLMKSQEFLEDADRKSLETKSLEVTFTPVIEDIGKVLVCRAKLHIDEMDSVPTVRQAVKELQVYISP
notes: also called 146R1R7
binding result [5]: binds

Results, then the binder that gave them:

fold weaker binding relative to 146R0 (KD(variant)/KD(146R0)) [1]: 1.5 fold
B6: 146R14 (ligand)
chain: B4 chain with L39I
notes: as for B4

fold weaker binding relative to 146R0 (KD(variant)/KD(146R0)) [1]: 6.3 fold
B7: 146R18 (ligand)
chain: B4 chain with L32F, L39I, R74T
notes: as for B4

fold weaker binding relative to 146R0 (KD(variant)/KD(146R0)) [1]: 5.3 fold
B8: 146R15 (ligand)
chain: B4 chain with L32F, L38Q
notes: as for B4

fold weaker binding relative to 146R0 (KD(variant)/KD(146R0)) [1]: 6.1 fold
B14: 146R23 (ligand)
chain: B4 chain with L32F, P37T
notes: as for B4

fold weaker binding relative to 146R0 (KD(variant)/KD(146R0)) [1]: 9.3 fold
B17: 146R20 (ligand)
chain: B4 chain with L32F, L38Q, L39I, K79S
notes: as for B4

fold weaker binding relative to 146R0 (KD(variant)/KD(146R0)) [1]: 2.8 fold
B18: 146R17 (ligand)
chain: B4 chain with L32F, L39I
notes: as for B4

fold weaker binding relative to 146R0 (KD(variant)/KD(146R0)) [1]: 40 fold
B22: 146R19 (ligand)
chain: B4 chain with L32F, L38Q, L39I
notes: as for B4

fold weaker binding relative to 146R0 (KD(variant)/KD(146R0)) [1]: 1.6 fold
B23: 146R22 (ligand)
chain: B4 chain with P37T
notes: as for B4

fold weaker binding relative to 146R0 (KD(variant)/KD(146R0)) [1]: 1.1 fold
B25: 146R16 (ligand)
chain: B4 chain with L32F, L39I, K79S
notes: Crude CHO-S supernatant, 3x spacer-FLAG tagged; The cell prints N: 131

fold weaker binding relative to 146R0 (KD(variant)/KD(146R0)) [1]: 1 fold
B26: 146R21 (ligand)
chain: B4 chain with L32F, P37T, K79S
notes: Crude CHO-S supernatant, 3x spacer-FLAG tagged; also called I46R21

binding result [5]: binds
B28: R1R3 (ligand)
2D-VCAM-1 variant polypeptide: B27 2D-VCAM-1 variant polypeptide with P38T, K80S
notes: also called 146R1R3

binding result [5]: binds
B29: R1R5 (ligand)
2D-VCAM-1 variant polypeptide: B27 2D-VCAM-1 variant polypeptide with L40I, K80S
notes: also called 146R1R5
